Assay [1] addresses T1, VEGF165R (Homo sapiens, UniProt O14786). Description: Cross-linking of 125I-VEGF165 to VEGF165R on 231 cells. It counts as binding. To be noted: 15 ug/ml fusion protein, FIG. 4 lane 4. More on the design: to 231 cells which express only VEGF165R; endogenous in cells; host or cells: MDA-MB-231 (ATCC). The protocol: (§1) FIG. 4. GST-EX 7+8 fusion protein inhibits cross-linking of ^125I-VEGF165 to ^125I-VEGF165R and to KDR/Flk-1. ^125I-VEGF165 (5 ng/ml) was bound to subconfluent cultures of HUVEC (lanes 1 and 2) and MDA-MB-23 1 cells (lanes 3 and 4) in 6-cm dishes. The binding was carried out in the presence (lanes 2 and 4) or the absence (lanes 1 and 3) of 15 ug/ml GST-Ex 7+8. Heparin (1 ug/ml) was added to each dish. At the end of a 2-h incubation, ^125I-VEGF165 was chemically cross-linked to the cell surface. The cells were lysed, and proteins were resolved by 6% SDS-PAGE. The gel was dried and exposed to x-ray film.
(§2) Binding and cross-linking experiments using 125I-VEGF165 and 125I-VEGF121 were performed at described previously (Gitay-Goren, et al., J. Biol. Chem., 287, 6003-6096 (1992), Soker, et al., J: Biol. Chem., 271,5761-5767 (1996)). VEGF binding was quantified by measuring the cell-associated radioactivity in a y-counter (Beckman, Gamma 5500). The counts represent the average of three walls. All experiments were repeated at least three times, and similar results were obtained. 125I-VEGF cross-linked complexes were resolved by 6% SDS-PAGE, and the gels were exposed to a phosphor screen and scanned after 24 h by a PhosphorImager (Molecular Dynamics). Subsequently, the gels were exposed to x-ray film.

In assay [2] the test system is KDR/Flk-1. Kind of assay: Cross-linking of 125I-VEGF121 to KDR/Flk-1 of HUVEC. The assay is classed as binding, human. The note with it: 15 ug/ml fusion protein, FIG. 8 lane 2. The protocol: FIG. 8. GST-Ex 7+8 fusion protein inhibits cross-linking of ^125I-VEGF121 to KDR/Flk-1 of HUVEC ^125I-VEGF121 (2˜0 ng/ml) was bound to subconfluent cultures of HUVEC in 6-cm dishes. The binding was carried out in the presence (lane 2) or the absence (lane 1) of 15 ug/ml GST-Ex 7+8. Heparin (1 ug/ml) was added to each dish. At the end of a 2-h incubation, ^125I-VEGF was chemically cross-linked to the cell surface. The cells were lysed, and proteins were resolved by 6% SDS-PAGE. The gel was dried and exposed to x-ray film.
as §2

Assay [3] concerns the target T2, KDR/Flk-1 (Homo sapiens, UniProt P35968). Description: Direct binding/cross-linking of 125I-GST-Ex 7 to HUVEC: KDR/Flk-1. More on the design: HUVEC, which express both KDR/Flk-1 and VEGF165R; endogenous in cells; host or cells: HUVEC (ATCC). To be noted: cross-linking, 1 ug/ml heparin, FIG. 1 lane 3. On the procedure: (§3) FIG. 1. Cross-linking of 1 ^125I-VEGF165, ^125I-VEGF121 and ^125I-GST-EX 7 to HUVEC. ^125I-VEGF165 (5 ng/ml) (lane 1) or ^125I-VEGF121 (10 ng/ml) (lane 2) or ^125I-GST-EX 7 (50 nglml) (lane 3) were bound to subconfluent cultures of HUVEC in 6-cm dishes. The binding was carried out in the presence of 1 ug/ml heparin. At the end of a 2-H incubation, each ^125I-VEGF isoform was chemically cross-linked to the cell surface. The cells were lysed and proteins were resolved by 6% SDS-PAGE. The polyacrylamide gel was dried and exposed to x-ray film.
as §2

Assay [4] has as its system KDR/Flk-1. Description: Cross-linking of 125I-VEGF165 to KDR/Flk-1 on HUVEC. To be noted: 15 ug/ml fusion protein, FIG. 4. The assay is classed as binding, human. On the procedure: as §1, §2
Assay [5] deals with T2, KDR/Flk-1. Kind of assay: Cross-linking of 125I-VEGF165 to KDR/Flk-1 on PAE-KDR cells. The assay is classed as binding, porcine endothelial cells transfected to express KDR/Flk-1. More on the design: expressed in transfected cells; host or cells: porcine endothelial cells (PAE), gift of Dr. Claesson-Welsh. The note with it: data not shown. The protocol:
as §2

The target of assay [6] is T1, VEGF165R. Kind of assay: Cross-linking of 125I-VEGF165 to VEGF165R on HUVEC. It counts as binding. More on the design: HUVEC, which express both KDR/Flk-1 and VEGF165R; endogenous in cells; host or cells: HUVEC (ATCC). To be noted: 15 ug/ml fusion protein, FIG. 4 lane 2. The protocol:
as §1, §2

Assay [7] has as its target T1, VEGF165R. Kind of assay: Direct binding/cross-linking of 125I-GST-Ex 7 to HUVEC: VEGF165R. On the set-up: HUVEC, which express both KDR/Flk-1 and VEGF165R; endogenous in cells; host or cells: HUVEC (ATCC). To be noted: cross-linking, 1 ug/ml heparin, FIG. 1 lane 3. The protocol: as §3, §2
In assay [8] the test system is VEGF121-induced proliferation of HUVEC. Description: Inhibition of VEGF121-stimulated HUVEC proliferation. The assay is classed as cell-based, human. The protocol: FIG. 7. GST-Ex 7+8 fusion protein inhibits VEGF165 and VEGF121-stimulated HUVEC proliferation. Increasing concentration of VEGF165 (circles) or VEGF121 (square) with 15 ug/ml GST-Ex 7+8 (closed symbols) or without GST-Ex 7+8 (open symbols) were added to HUVEC, and [*H]thymidine incorporation into the DNA was measured as in FIG. 2. The results represent the average counts of three wells and the standard deviations were determined.
HUVEC were seeded in gelatin-coated 96-well dishes at 4,000 cells/200 Ul/well in M-199 containing 5% FCS and GPS. After 24 H, VEGF isoforms and VEGF exon 7-GST fusion proteins were added to the wells at the same time. The cells were incubated for 72 h, and [3H]thymidine (1 pC/ml) was added for 10-12 h. The medium was aspirated, and the cells were trypsinized and harvested by an automatic cell harvester (TOMTEC) and loaded onto Filtermats (Wallac). The Filtermats were scanned and cpm were determined by a MicroBeta counter (Wallac). The results represent the average of samples assayed in triplicate, and the standard derivations were determined. All experiments were repeated at least three times and similar results were obtained.

“Also recorded” adds a separate entry of the source. Where no end group is shown, it is not given here.

T1 sequence (O14786 22-923): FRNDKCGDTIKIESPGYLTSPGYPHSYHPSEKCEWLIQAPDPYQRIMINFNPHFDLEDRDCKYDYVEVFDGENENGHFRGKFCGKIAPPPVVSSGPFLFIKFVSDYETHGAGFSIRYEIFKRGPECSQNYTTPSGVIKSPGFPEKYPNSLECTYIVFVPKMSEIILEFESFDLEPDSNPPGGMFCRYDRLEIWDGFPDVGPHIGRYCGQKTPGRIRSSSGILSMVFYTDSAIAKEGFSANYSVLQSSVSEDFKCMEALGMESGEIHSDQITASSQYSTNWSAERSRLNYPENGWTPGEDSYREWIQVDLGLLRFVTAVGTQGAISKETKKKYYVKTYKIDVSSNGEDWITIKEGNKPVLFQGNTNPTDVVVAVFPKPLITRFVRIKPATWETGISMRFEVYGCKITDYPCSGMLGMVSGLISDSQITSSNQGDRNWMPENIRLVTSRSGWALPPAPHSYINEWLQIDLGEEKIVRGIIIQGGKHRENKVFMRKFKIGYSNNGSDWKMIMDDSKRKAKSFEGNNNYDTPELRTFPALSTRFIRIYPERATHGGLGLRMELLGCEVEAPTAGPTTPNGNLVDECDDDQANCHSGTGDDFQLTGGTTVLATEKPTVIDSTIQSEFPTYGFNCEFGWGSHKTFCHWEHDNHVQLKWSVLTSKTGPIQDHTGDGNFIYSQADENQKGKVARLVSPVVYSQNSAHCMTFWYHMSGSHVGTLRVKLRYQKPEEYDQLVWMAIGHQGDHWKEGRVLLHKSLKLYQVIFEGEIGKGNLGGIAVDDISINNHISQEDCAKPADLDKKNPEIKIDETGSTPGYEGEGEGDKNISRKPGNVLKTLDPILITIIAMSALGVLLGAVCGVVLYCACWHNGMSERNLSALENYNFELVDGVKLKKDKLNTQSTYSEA
T2 sequence (P35968 20-1356): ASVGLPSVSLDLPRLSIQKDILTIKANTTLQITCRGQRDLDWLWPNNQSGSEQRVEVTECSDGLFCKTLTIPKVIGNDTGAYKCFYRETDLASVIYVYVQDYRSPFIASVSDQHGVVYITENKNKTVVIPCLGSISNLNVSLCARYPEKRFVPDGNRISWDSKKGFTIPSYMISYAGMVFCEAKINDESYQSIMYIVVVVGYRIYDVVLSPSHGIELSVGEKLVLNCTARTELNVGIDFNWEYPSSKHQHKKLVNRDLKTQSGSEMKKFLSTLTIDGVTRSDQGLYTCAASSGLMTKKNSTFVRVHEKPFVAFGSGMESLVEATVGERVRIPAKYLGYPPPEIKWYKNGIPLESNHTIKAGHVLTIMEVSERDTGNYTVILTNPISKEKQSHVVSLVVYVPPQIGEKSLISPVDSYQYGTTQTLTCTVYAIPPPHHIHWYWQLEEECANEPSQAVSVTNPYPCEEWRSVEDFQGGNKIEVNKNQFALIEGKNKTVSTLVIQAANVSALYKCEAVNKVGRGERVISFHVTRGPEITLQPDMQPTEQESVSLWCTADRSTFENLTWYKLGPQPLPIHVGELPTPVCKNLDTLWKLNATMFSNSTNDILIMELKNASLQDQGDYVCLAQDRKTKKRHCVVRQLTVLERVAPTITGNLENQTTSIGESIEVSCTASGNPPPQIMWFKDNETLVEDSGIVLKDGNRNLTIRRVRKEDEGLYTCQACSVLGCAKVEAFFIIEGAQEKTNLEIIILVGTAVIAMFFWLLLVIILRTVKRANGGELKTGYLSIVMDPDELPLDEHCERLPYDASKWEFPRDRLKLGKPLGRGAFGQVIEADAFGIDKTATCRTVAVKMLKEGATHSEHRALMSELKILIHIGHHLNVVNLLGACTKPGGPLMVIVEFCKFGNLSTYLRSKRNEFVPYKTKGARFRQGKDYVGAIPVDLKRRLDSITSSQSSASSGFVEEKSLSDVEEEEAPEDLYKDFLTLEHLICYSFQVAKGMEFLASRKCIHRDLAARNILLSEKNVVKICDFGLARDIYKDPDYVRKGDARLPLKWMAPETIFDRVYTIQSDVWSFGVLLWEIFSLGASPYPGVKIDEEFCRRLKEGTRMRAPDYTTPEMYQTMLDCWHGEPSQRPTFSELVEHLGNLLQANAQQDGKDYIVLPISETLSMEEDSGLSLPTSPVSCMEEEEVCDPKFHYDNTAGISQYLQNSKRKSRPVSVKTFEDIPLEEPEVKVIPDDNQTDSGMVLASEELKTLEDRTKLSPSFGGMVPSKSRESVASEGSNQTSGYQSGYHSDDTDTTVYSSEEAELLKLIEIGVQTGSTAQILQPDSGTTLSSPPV

In the case of “GST-Ex 7+8: GST fusion protein containing the peptide encoded by VEGF165 exons 7 and 8 (PCGPCSERRKHLFVQDPQTCKCSCKNTDSRCKARQLELNERTCRCDKPRR; cysteine pairing not given here; also: GST fusion protein, side of fusion not given here)”, in the assay with VEGF165R [1], the “formation of 125I-VEGF165/VEGF165R cross-linked complexes on 231 cells (in words)” value is recorded as “markedly inhibited”. Besides, the “formation of 240-kDa 125I-VEGF121/KDR/Flk-1 cross-linked complexes on HUVEC (in words)” value in the assay on KDR/Flk-1 [2] was “significantly inhibited; also recorded: diminished binding”. For the same substance, in the assay with KDR/Flk-1 [3], the “direct binding to KDR/Flk-1 on HUVEC (in words)” value was “not and does not bind directly”. In addition, the “binding/cross-linking of 125I-VEGF165 to KDR/Flk-1 on HUVEC (in words)” value with KDR/Flk-1 [4] is “inhibits indirectly; also recorded: inhibited”. In the assay with KDR/Flk-1 [5], the “cross-linking of 125I-VEGF165 to KDR/Flk-1 on PAE-KDR cells (in words)” value is reported as “did not inhibit”. Also, the “formation of 165-175-kDa 125I-VEGF165/VEGF165R cross-linked complexes on HUVEC (in words)” value with VEGF165R [6] is reported as “markedly inhibited”. Moreover, in the assay with VEGF165R [7], the “direct binding to VEGF165R on HUVEC (in words)” value is “binds”. The “inhibition of the mitogenic activity of VEGF121 for HUVEC” value in assay [8] is recorded as “about 50%”. Moreover, the “inhibition of VEGF125-mediated HUVEC proliferation” value in assay [8] (15 ug/ml, FIG. 7) is reported as “about 2 fold”.
